B1: Bak [human] / Bak [human] (parent)
chain 1: MASGQGPGPPRQECGEPALPSASEEQVAQDTEEVFRSYVFYRHQQEQEAEGVAAPADPEMVTLPLQPSSTMGQVGRQLAIIGDDINRRYDSEFQTMLQHLQPTAENAYEYFTKIATSLFESGINWGRVVALLGFGYRLALHVYQHGLTGFLGQVTRFVVDFMLHHCIARWIAQRGGWVAALNLGNGPILNVLVVLGVVLLGQFVVRRFFKS
chain 2: B1 chain 1

Variants of: B1
Assay: BiFC (flow cytometry)
Conditions: with Bak [human]; 6 independent experiments (H164A), 8 (WT); read off a plot

Variant | response (Mean Venus/Mean mRFP)
chain 1 H164A | 1.8

Same assay, conditions: with Bak [human]; 6 independent experiments; read off a plot

Variant | response (Mean Venus/Mean mRFP)
chain 1 H164A | 1.8
